The target in this experiment is PP2A:B55 holoenzyme (PP2Aa, B55, PP2Ac) (UniProt P30153).
Chain of PP2A:B55 holoenzyme (PP2Aa, B55, PP2Ac) (P30153 9-589, chain 1 of 3): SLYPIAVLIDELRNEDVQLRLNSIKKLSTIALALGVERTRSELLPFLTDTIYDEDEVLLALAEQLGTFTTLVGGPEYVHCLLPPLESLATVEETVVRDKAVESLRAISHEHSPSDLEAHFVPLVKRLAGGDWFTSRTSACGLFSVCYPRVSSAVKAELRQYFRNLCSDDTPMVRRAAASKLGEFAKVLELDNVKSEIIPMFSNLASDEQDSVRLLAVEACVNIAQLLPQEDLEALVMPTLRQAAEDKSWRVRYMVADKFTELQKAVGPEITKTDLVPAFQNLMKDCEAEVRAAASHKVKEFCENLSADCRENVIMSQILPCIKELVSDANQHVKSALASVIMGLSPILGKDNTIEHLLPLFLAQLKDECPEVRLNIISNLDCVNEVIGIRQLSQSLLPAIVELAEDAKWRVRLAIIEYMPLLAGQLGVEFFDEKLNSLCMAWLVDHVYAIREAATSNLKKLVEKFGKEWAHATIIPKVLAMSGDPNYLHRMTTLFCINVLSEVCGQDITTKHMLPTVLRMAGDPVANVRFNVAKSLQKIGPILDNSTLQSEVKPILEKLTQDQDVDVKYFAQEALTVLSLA
Chain of PP2A:B55 holoenzyme (PP2Aa, B55, PP2Ac) (P63151 whole entry, chain 2 of 3, further chain, the tested form may be a part): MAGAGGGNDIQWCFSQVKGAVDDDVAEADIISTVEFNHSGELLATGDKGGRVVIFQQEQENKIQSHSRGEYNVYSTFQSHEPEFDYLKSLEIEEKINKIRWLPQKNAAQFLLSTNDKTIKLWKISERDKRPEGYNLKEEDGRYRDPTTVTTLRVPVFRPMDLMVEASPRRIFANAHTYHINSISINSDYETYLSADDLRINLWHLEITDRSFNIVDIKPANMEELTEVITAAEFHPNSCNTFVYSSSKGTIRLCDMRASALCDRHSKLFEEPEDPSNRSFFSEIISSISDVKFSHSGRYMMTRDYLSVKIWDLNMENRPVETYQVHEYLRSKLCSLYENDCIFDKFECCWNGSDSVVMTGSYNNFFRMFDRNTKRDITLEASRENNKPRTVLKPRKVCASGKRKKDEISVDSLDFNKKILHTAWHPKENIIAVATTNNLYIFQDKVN
Chain of PP2A:B55 holoenzyme (PP2Aa, B55, PP2Ac) (P67775 whole entry, chain 3 of 3, further chain, the tested form may be a part): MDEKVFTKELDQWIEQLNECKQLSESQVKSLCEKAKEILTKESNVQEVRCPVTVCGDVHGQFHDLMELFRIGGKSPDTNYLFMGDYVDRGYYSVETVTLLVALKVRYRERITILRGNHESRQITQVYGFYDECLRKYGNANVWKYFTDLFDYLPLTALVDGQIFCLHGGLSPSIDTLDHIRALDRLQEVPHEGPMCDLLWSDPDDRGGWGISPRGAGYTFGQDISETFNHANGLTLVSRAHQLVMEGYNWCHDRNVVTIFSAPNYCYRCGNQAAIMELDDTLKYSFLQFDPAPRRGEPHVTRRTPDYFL
As for “FAM122AID E104A/S120C (domain or fragment)”, the inhibition of PP2A:B55 phosphatase activity (DiFMUP), against wild type is 2 fold. The result for FAM122AID R105L (domain or fragment) reads 11 fold; that for FAM122AID V107G (domain or fragment), 6 fold.

For the origin of these results see article PMC10765524.
